# Data published in US10772972B2, “Anti-STEAP2 antibody drug conjugates, and compositions and uses thereof” (Regeneron Pharmaceuticals, Inc., priority 2016, dated 2020).
# Positions count from the first letter of the chain named.
# T1: hSTEAP2 fused to GFP (Homo sapiens, UniProt Q8NFT2)
# T1 construct: expressed in transfected cells; host or cells: HEK293
# T1 sequence (Q8NFT2 1-490): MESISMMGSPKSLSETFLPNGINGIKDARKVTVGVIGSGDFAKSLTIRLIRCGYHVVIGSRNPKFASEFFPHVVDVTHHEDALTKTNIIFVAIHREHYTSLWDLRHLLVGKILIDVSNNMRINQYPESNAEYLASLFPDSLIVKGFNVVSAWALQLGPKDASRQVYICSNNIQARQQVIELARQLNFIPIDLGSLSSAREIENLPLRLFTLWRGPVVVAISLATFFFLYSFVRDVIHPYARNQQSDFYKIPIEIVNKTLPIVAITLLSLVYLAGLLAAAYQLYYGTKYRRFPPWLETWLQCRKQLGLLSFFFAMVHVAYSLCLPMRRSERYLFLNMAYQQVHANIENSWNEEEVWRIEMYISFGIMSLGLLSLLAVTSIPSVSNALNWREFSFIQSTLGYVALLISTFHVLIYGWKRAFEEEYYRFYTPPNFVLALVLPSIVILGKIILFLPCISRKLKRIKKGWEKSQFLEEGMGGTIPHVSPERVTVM
# T2: hSTEAP3 fused to GFP (Homo sapiens, UniProt Q658P3)
# T2 construct: expressed in transfected cells; host or cells: HEK293
# T2 sequence (Q658P3 1-488): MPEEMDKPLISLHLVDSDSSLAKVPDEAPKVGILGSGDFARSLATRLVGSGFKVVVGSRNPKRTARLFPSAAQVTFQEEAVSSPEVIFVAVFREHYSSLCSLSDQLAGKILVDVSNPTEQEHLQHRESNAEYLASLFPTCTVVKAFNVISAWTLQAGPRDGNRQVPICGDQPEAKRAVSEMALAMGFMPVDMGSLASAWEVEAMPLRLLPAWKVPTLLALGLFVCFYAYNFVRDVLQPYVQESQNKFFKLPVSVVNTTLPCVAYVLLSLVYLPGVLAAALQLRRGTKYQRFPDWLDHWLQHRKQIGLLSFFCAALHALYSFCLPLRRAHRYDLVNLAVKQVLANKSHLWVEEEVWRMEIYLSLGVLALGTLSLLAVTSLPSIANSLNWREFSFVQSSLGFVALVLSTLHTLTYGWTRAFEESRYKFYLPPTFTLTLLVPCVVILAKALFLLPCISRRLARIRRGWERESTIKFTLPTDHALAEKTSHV
# T3: hSTEAP4 fused to GFP (Homo sapiens, UniProt Q687X5)
# T3 construct: expressed in transfected cells; host or cells: HEK293
# T3 sequence (Q687X5 1-459): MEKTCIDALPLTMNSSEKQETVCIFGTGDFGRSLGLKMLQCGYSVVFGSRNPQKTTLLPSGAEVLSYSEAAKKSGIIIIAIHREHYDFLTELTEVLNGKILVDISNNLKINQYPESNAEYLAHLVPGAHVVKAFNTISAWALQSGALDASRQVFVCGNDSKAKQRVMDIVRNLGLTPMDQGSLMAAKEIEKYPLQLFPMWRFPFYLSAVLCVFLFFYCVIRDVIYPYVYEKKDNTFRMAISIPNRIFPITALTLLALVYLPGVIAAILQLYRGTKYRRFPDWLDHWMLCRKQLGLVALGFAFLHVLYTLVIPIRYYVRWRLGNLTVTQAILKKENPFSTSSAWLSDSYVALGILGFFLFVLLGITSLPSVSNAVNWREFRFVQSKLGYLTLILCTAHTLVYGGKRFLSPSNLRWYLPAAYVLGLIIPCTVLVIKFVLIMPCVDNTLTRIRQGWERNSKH
# B1: H1H7972P: anti-STEAP2 antibody, HCVR/LCVR SEQ ID NOs 186/194 (antibody, V domains shown)
# VH: QVQLQQSGPGLVKPSQTLSLTCAISGDSVSSNSAAWNWIRQSPSRGLEWLGRTYYRSKWYNDYVVSVKSRIIFNPDTSKNQFSLQLNSVTPEDTAVYYCARVRQDYRSGPFDYWGQGTLVTVSS
# VL: EIVMTQSPVTLSVSPGERATLSCWASQSVSSSLAWYQQKPGQAPRLLIYGASTRATGIPARFSGSGSGTGFTLTISSLQSEDFAVYYCQQYNNWPFTFGPGTKVDIK
# B2: H1H11162N: human-Fc anti-STEAP2 antibody, HCVR/LCVR SEQ ID NOs 250/258 (antibody, V domains shown)
# VH: QVQLQQSGPGLVKPSQTLSLTCAISGDSVSSNRAAWNWIRQSPSRGLQWLGRTYYRSKWYNDYAVSLRSRITINPVTSKNQVALHMNSVTPEDTAVYYCARAGIVVVPGPETFYYYDHGLDVWGQGTTVTVSS
# VL: DIQMTQSPSSLSASVGDRVTITCRASQSIRSYLNWYQQKPGKAPELLIHAASSLQSGVPSRFSGSGSGTDFTLTISSLQPEDFASYYCQQSYSAPPITFGQGTRLEIK
# modifications: human Fc
# B3: H1H7809N: human-Fc anti-STEAP2 antibody, HCVR SEQ ID NO: 330 (antibody, V domains shown)
# VH: QVQLVESGGGVVQPGRSLGLSCAASGFTFSSYGMHWVRQAPGKGLEWVAVIWYDGSNKYYVDSVKGRFTISRDNSKNTLYLQMNSLRAEDTAVYYCAREGLRFLENYYYYYGMDVWGQGTTVTVSS
# VL: EIVLTQSPGTLSLSPGERATLSCRASQSISSTYLAWYQQRPGQAPRLLIYGASSRATGIPDRFSGSGSGTDFTLTISRLEPEDFAVYYCQQYGTSPYTFGQGTKLEIK
# B4: H2M7810N: anti-STEAP2 antibody, HCVR/LCVR SEQ ID NOs 346/354 (antibody, V domains shown)
# VH: QVQLVESGGGVVQPGRSLRLSCAVSGFTSSTYGMNWVRQAPGKGLEWVAVISYDGSNKYYADSVKGRFTISRDNSKNTLYLQMNSLRPEDTAVYYCARGRYFDLWGRGTLVTVSS
# VL: DIQMTQSPSTLSASVGDRVTITCRASQIISSWLAWYQQKPGKAPKLLIYKASSLASGVPSRFSGSGSGTEFTLTISSLQPDDFATYYCQQYKSYSYTFGQGTKLEIK
# B5: H2M7807N: anti-STEAP2 antibody, HCVR/LCVR SEQ ID NOs 314/322 (antibody, V domains shown)
# VH: B4 VH
# VL: B4 VL with K103N
# B6: H1M7814N: anti-STEAP2 antibody, mouse IgG1 Fc, HCVR/LCVR SEQ ID NOs 218/226 (antibody, V domains shown)
# VH: B4 VH with A23V, V24A, S29I, T31S, S56G, Y60S, A61V, P88A, T91S
# VL: B4 VL with I28S, K42R, K45N, Y49S, A55K, I75V, K92Y
# modifications: mouse IgG1 Fc
# B7: H2M7811N: anti-STEAP2 antibody, HCVR/LCVR SEQ ID NOs 362/370 (antibody, V domains shown)
# VH: B4 VH with Y53F, N84S
# VL: B4 VL with I2T, K103N
# System: FADU cells (STEAP2 negative)
# Assay: FACS binding to STEAP2-negative FADU cells
# Settings: human-Fc antibodies
# Procedure: (§1) The ability of anti-STEAP2 antibodies to selectively bind to human six-transmembrane epithelial antigen of prostate 2 (STEAP2) endogenously expressing cell lines was determined via FACS analysis.
# (§2) Briefly, 1×10^5 cells were incubated with 10 μg/ml of anti STEAP2 antibodies, or isotype control antibodies for 30 min on ice in antibody dilution buffer. Following one wash with antibody dilution buffer, cells were incubated with 10 μg/ml of PE conjugated anti-human or anti mouse Fc secondary antibodies for 30 min on ice. Following one additional wash, samples were incubated with Cytofix (1% formaldehyde) for 20 minutes. After one final wash, samples were filtered through a Pall 96 well filtration block, run on a Hypercyt® cytometer and analyzed in ForeCyt™ (IntelliCyt, Albuquerque, N. Mex.). Mean fluorescence intensities (MFI) were expressed as fold change above unstained levels (background). The average fold above background at antibody concentrations of 100-300 nM were determined. For cell binding EC50 determinations, mAb concentrations ranged from 300 nM to […] and EC50 values were determined from a four-parameter logistic equation over a 12-point response curve (GraphPad Prism).
row,Molecule,FADU Avg F.A.B (Fold Above Background)
1,B1,2 fold
2,B2,3 fold
3,B3,21 fold

# System: SKBR3 cells (STEAP2 negative)
# Assay: FACS binding to STEAP2-negative SKBR3 cells
# Settings: human-Fc antibodies
# Procedure: as §1, §2
row,Molecule,SKBR3 Avg F.A.B (Fold Above Background)
1,B1,3 fold
2,B2,3 fold
3,B3,37 fold

# System: Raji cells (STEAP2 negative)
# Assay: FACS binding to STEAP2-negative Raji cells
# Settings: human-Fc antibodies
# Procedure: as §1, §2
row,Molecule,Raji Avg F.A.B (Fold Above Background)
1,B1,59 fold
2,B2,2 fold
3,B3,3 fold

# System: C4-2 cells (high-STEAP2 expressing)
# Assay: Internalization and total binding on C4-2 cells (imaging, qualitative score)
# Type: cell-based, human
# Set-up: key: − (no internalization or binding); +(weak internalization or binding); ++(moderate internalization or binding); +++(robust internalization or binding)
# Settings: 10 μg/ml antibody
# Procedure: Briefly, 20,000 C4-2 cells were seeded in PDL coated 96 well plates. The next day, cells were incubated with anti-human STEAP2 antibodies (10 μg/ml) for 30 min on ice followed by two PBS washes. Cells were then incubated with alexa488-conjugated anti-hFc Fab secondary antibody for 30 minutes on ice, followed by two additional PBS washes. Antibodies were allowed to internalize for 1 h at 37° C. in internalization buffer (PBS+2% FBS) or were maintained at 4° C. Cells were fixed in 4% formaldehyde, nuclei were stained with DRAQ5 (Cell signaling), and images were acquired on the ImageXpress micro XL (Molecular Devices).
# A qualitative visual assessment of the total binding intensity and the intensity of antibodies that had internalized into vesicles was performed and scored according to the following criteria: − (no internalization or binding), +(weak internalization or binding), ++(moderate internalization or binding) and +++(robust internalization or binding).
Molecule,"Internalization (37° C., 1 h) Qualitative Score",Total Binding (4° C.) Qualitative Score
B1,+,+
B2,+++,+++

# Target: T4, hSTEAP1 fused to GFP (Homo sapiens, UniProt Q9UHE8)
# T4 construct: expressed in transfected cells; host or cells: HEK293
# Assay: Specificity: binding to HEK293 cells transfected with hSTEAP1-GFP
# Set-up: key: Wells with GFP positive cells that bound anti STEAP2 antibodies were scored as positive (+); those that did not bind anti STEAP2 antibodies were scored as negative (−)
# Settings: transient transfection, 48 h
# Procedure: (§3) Selected STEAP2 antibodies were then tested for binding to other human (h) STEAP family members (STEAP1, STEAP3, and STEAP4). To assess anti STEAP2 antibody specificity, plasmid constructs expressing hSTEAP1, hSTEAP2, hSTEAP3 or hSTEAP4 fused to Green Fluorescent Protein (GFP) were transiently introduced into HEK293 cells via lipofectamine 2000 based methodology. After 48 h, transiently transfected cells were stained with anti STEAP2 antibodies and imaged as described above for the internalization assay.
# T4 sequence (Q9UHE8 whole entry, the tested form may be a part): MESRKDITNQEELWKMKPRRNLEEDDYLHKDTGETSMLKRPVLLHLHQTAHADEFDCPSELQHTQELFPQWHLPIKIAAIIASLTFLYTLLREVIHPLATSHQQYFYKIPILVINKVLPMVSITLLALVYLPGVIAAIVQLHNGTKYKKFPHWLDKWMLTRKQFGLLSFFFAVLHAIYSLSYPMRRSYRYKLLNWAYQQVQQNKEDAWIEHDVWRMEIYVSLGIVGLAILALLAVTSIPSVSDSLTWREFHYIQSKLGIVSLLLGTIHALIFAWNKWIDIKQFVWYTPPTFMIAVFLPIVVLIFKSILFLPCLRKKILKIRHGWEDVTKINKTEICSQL
row,Binding to hSTEAP1-GFP transfected HEK293 cells,Molecule
1,−,B1
2,−,B4
3,−,B5
4,−,B6
5,−,B7

# Target: T1, hSTEAP2 fused to GFP
# Assay: Specificity: binding to HEK293 cells transfected with hSTEAP2-GFP
# Set-up: key: Wells with GFP positive cells that bound anti STEAP2 antibodies were scored as positive (+); those that did not bind anti STEAP2 antibodies were scored as negative (−)
# Settings: transient transfection, 48 h
# Procedure: as §3
row,Binding to hSTEAP2-GFP transfected HEK293 cells,Molecule
1,+,B1
2,+,B4
3,+,B5
4,+,B6
5,+,B7

# Target: T2, hSTEAP3 fused to GFP
# Assay: Specificity: binding to HEK293 cells transfected with hSTEAP3-GFP
# Set-up: key: Wells with GFP positive cells that bound anti STEAP2 antibodies were scored as positive (+); those that did not bind anti STEAP2 antibodies were scored as negative (−)
# Settings: transient transfection, 48 h
# Procedure: as §3
row,Binding to hSTEAP3-GFP transfected HEK293 cells,Molecule
1,−,B1
2,−,B4
3,−,B5
4,−,B6
5,−,B7

# Target: T3, hSTEAP4 fused to GFP
# Assay: Specificity: binding to HEK293 cells transfected with hSTEAP4-GFP
# Set-up: key: Wells with GFP positive cells that bound anti STEAP2 antibodies were scored as positive (+); those that did not bind anti STEAP2 antibodies were scored as negative (−)
# Settings: transient transfection, 48 h
# Procedure: as §3
row,Binding to hSTEAP4-GFP transfected HEK293 cells,Molecule
1,−,B1
2,−,B4
3,−,B5
4,−,B6
5,−,B7
